In PMC9149338 (Cellular and Molecular Immunology, 2022):

Molecular target: GST-importin α5 (aa 400–538) (human, UniProt P52294 400-538)
Assay: SPR

GST-importin α5 (aa 400–538), sequence (P52294 400-538): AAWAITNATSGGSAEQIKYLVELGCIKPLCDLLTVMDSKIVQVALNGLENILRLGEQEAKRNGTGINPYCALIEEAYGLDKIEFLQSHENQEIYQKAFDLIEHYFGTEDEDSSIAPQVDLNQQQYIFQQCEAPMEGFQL

Kd [nM]	binding result	Binder
2.67	–	KEREKKREKEEKKRLELEKKEQKEKEKKEQEIKKK [ADAP NLS1 peptide]
2.38	–	KAKTEEKDLKKLKKQEKEEKDFRKKFK [ADAP NLS2 peptide]
–	binds	HLQLKEQKNA [STAT1 NLS peptide]
